From publication PMC9539395 (2022)

How the values were obtained:
Experiment in all cases: BLI
Wuhan RBD‐8his [1] = target: T1, Wuhan RBD‐8his (SARS-CoV-2, UniProt P0DTC2)
Wuhan RBD‐8his [2] = target: T1, Wuhan RBD‐8his; remark: listed apart in the source
gamma RBD [3] = target: T2, gamma RBD (SARS-CoV-2, UniProt P0DTC2)
gamma RBD [4] = target: T2, gamma RBD; remark: listed apart in the source

B1: sACE2_(2).v2.4(NN)‐IgG1 (Fc fusion)
chain: QSTIEEQAKYFLDKFNHEAEDLFYQSSLASWNYNTNITEENVQNMNNAGDKWSAFLKEQSTTAQMYPLQEIQNLTVKLQLQALQQNGSSVLSEDKSKRLNTILNTMSTIYSTGKVCNPDNPQECLLLEPGLNEIMANSLDYNERLWAWESWRSEVGKQLRPLYEEYVVLKNEMARANHYEDYGDYWRGDYEVNGVDGYDYSRGQLIEDVEHTFEEIKPLYEHLHAYVRAKLMNAYPSYISPIGCLPAHLLGDMWGRFWTNLYSLTVPFGQKPNIDVTDAMVDQAWDAQRIFKEAEKFFVSVGLPNMTQGFWEYSMLTDPGNVQKAVCHPTAWDLGKGDFRILMCTKVTMDDFLTAHNEMGNIQYDMAYAAQPFLLRNGANEGFHEAVGEIMSLSAATPKHLKSIGLLSPDFQEDNETEINFLLKQALTIVGTLPFTYMLEKWRWMVFKGEIPKDQWMKKWWEMKREIVGVVEPVPHDETYCDPASLFHVSNDYSFIRYYTRTLYQFQFQEALCQAAKHEGPLHKCDISNSTEAGQKLFNMLRLGKSEPWTLALENVVGAKNMNVRPLLNYFEPLFTWLKDQNKNSFVGWSTDWSPYADQSIKVRISLKSALGDKAYEWNDNEMYLFRSSVAYAMRQYFLKVKNQMILFGEEDVRVANLKPRISFNFFVTAPKNVSDIIPRTEVEKAIRMSRSRINDAFRLNDNSLEFLGIQPTLG
- Kd (Wuhan RBD‐8his [1]): 0.5 nM
- koff (Wuhan RBD‐8his [2]): 0.00032 s⁻¹
- koff (gamma RBD [3]): 0.00043 s⁻¹
- Kd (gamma RBD [4]): 0.5 nM
